For the data set, the target named is SARS2-NP SIM1A (poly-SUMOylated) (SARS-CoV-2) (UniProt P0DTC9). Nature of the data set: MST. Particulars: MST: PBS with 0.05% Tween, room temperature.

The values that follow come from PMC10764958.

As usually defined, the Kd is the constant that tells how readily two partners part at equilibrium.

For the sequence “CACUCGCUAUGUCGAUAACAACUUCUGUGGCCCUGAUGGCUACCCUCUUGAGUGCAUUAAAGA [Cy5-RNA (SARS-CoV-2 RNA)]”, the Kd is 2.71 nM. This counts as single-digit nanomolar.
